Patent publication US7250395B2, “Antagonist peptides to VEGF receptor Flt-1” (Beijing Institute for Cancer Research, priority 2001, dated 2007)
Entries after “also recorded” stand apart in the source; their conditions may differ.

Tests used:
[1] = tested on: human breast cancer cells; assay: Metastasis model of breast cancer in SCID mice; type: in vivo
Procedure: In order to observe the inhibitory activity of the peptides of the present invention to cancer metastasis, a metastasis model of breast cancer in SCID mice as described by Li Zhihong at al. (Transplant of human breast cancer in nude mice. Natl. Med J Chin. Vol.80 (11), 2000) was used to determine the function of F56. Briefly, human breast cancer cells were inoculated under the fat pad in the breast of SCID mice. Peptide F56 (0.5 mmol/L) was injected topically (60 μl per mouse per time) on the next day and every other day for 10 times in total. After 8 weeks, the mice were put to dead. The tumors were taken out and weighted. The whole lung was taken out, fixed and sliced with maximal cross-section and dyed by HE. The number of metastatic foci was counted.

[2] = tested on: chick chorioallantoic membrane blood vessels; assay: Proliferation of blood vessels on chick chorioallantoic membrane; type: in vivo
Procedure: In this example, a proliferation assay on chick chorioallantoic membrane blood vessels was carried out to detect the inhibition of F56 to angiogenesis.
The experiment was carried out according to a method described by Fu Shengfa et al. (Fu Shengfa, Lu Yinglin and Zhang Chaoshan: Technique of detecting the effects of vascular growth factor with chorioallantoic membrane of fertilized chicken eggs. Chin Mili. Acad. Medi. Scie. 1993, 17:294-97”). Particularly, fresh inseminated chicken eggs were soaked in 0.1% benzalkonium bromide solution for 2 minutes at 38° C., and incubated in an incubator at 37.5° C., 60-70% humidity for 3 days. Then, the eggs were stripped and cultured on a petri dish. When the allantoic membrane grew to about 1cm^2, the different groups (5 chick embryos per group) were treated with the following agents. VEGF165 (2 μg/L), DHFR (negative control) or 18 μl F56 solution (0.8 μg/μl) was dropped onto a glass-fiber filter membrane (Φ5 mm). The membrane was placed on the distal end (in relation to the heart of the embryo) of the chorioallantoic membrane. The agents were administered once in the morning and once in the evening for 2 days. The results were observed and recorded by photography. The experiment was repeated twice (Kodak 100, exposed for 3 s).

[3] = tested on: human umbilical cord vein-derived endothelial cells (HUVECs); assay: VEGF-stimulated proliferation of HUVECs (3H-TdR incorporation); type: cell-based; conditions: 50, 100, 200, 300 μmol/L with VEGF165, 48 hours; FIG. 2
Procedure: A sample of human umbilical cord (obtained from Beijing Gynecological and Obstetric Hospital) was digested by 0.1% collagenase II (purchased from GIBCO BRL Corporation), and centrifuged at 1000 rpm for 10 minutes to collect the human umbilical cord vein-derived endothelial cells (HUVECs). The cells were suspended in 20% FCS/RPMI 1640 (purchased from GIBCO BRL Corporation), and transferred to a plastic culture flask and cultured in a incubator (37° C., 5% CO2) for 2 days. Then, the cultured HUVECs were digested with 0.04% trypsin-EDTA, and inoculated into a 24-well plate at 3×10^4 cells/well. After 24 hours' incubation, the cells were incubated for another 24 hours in new medium 2% FCS/RPIM 1640. VEGF165 (product of Sigma Corporation) was added either independently or as a mixture with peptide F56 or F90 of different concentrations (50, 100, 200, 300 μmol/L). 4 parallel wells were used for each group. The cells were incubated for 48 hours. Then, ^3H-TdR(1 μci/ml) was added and the cells were incubated for another 8 hours. The cells were collected to a glass-fiber filter membrane. The cpm value was detected according to conventional methods. The same experiment was repeated for 3 times.

sKDR = biological target: T1, sKDR (Homo sapiens, UniProt P35968); assay: ELISA test of binding specificity to soluble receptor sKDR; conditions: for reaction with KDR (in words): ELISA; for ELISA (OD492 nm), SKDR: plate coated with sKDR 5 mg/L, detection with DHFR-specific monoclonal antibody
T1 construct: made in house
T1 sequence (P35968 20-764 limits assumed): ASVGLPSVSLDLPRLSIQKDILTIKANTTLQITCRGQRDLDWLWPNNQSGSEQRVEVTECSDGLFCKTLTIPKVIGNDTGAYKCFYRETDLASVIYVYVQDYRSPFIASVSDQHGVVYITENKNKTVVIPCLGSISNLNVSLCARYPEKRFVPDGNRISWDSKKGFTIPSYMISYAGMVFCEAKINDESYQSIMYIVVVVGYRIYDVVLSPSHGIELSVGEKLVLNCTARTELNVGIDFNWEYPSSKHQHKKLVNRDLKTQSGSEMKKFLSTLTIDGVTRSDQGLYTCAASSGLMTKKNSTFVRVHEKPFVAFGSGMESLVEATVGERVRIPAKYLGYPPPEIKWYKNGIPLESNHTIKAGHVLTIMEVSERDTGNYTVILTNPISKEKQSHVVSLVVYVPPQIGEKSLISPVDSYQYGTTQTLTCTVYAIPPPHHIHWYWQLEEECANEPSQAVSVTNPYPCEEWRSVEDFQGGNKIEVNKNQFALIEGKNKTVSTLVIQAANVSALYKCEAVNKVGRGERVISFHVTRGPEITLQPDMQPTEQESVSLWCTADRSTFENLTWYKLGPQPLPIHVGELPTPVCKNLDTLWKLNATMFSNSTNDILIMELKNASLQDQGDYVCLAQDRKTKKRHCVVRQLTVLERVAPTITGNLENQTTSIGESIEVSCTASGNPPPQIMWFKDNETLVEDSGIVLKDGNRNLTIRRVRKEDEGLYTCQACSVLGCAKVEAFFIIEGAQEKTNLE
Procedure: (§1) The specificity of the binding of the fusion proteins DHFR-F56 and DHFR-F90 to receptor Flt-1 was tested by ELISA in the present example.
(§2) Particularly, a 96-well plate was coated with soluble receptors, sFlt-1, sKDR (5 mg/L, 50 μl/well) [Song Shumei, Shou Chengchao: Molecular cloning and its expression of vascular endothelia growth factor receptor KDR. Chin J. Biochem. Mol. Bio. 1998, 14 (1): 57-61; An Ping, Dong Zhewei and Shou Chengchao: Molecular cloning and its bio-activity of soluble VEGF receptor expressed in bacterial. Chin J. Biochem. Mol. Bio. 2000, 16 (1): 62-66]. Alternatively, the vascular endothelial cells in a 96-well plate were fixed by pre-cooled 0.125% glutaraldehyde solution. DHFR, DHFR-F56 or DHFR-F90 was added to the plate after blocking. An ELISA assay was carried out using a DHFR-specific monoclonal antibody according to conventional method. The ELISA assay was repeated for 3 times.

[4] = tested on: MGC803 cells (a human gastric carcinoma cell line); assay: Tumor inhibition test, MGC803 implanted in Balb/c nude mice; type: in vivo; conditions: 150 μg/100 μl intraperitoneally every other day for 10 times; for growth of human gastric carcinoma MGC803 cells in Balb/c nude mice: p<0.05 vs DHFR control
Procedure: To testify whether DHFR-F56 and DHFR-F90 can inhibit tumor growth on the basis of anti-angiogenesis, a tumor inhibition test on Balb/c nude mice was performed.
MGC803 cells (a human gastric carcinoma cell line) was subcutaneously implanted on the right buttock of eight 5-week aged nude mice (purchased from the Animal Center of the Chinese Academy of Medical Sciences) (2×10^6 cells/0.1 ml/each mouse). On the fifth day after the implantation, the nude mice were grouped at random into […] each of which included 4 mice. DHFR (150 μg/100 μl per time), DHFR-F56 or DHFR-F90 (150 μg/100 μl per time) was injected intraperitoneally every other day for 10 times. […] The major and minor axes of the tumors were measured by vernier caliper every three days during the observation period. The volume of the tumor was calculated according to the formula of ½×major axis×minor axis^2. After the 30 days, the nude mice were put to dead by neck-breaking. The tumors were weighted and analyzed statistically.

[5] = tested on: vascular endothelial cells; assay: ELISA test of binding to fixed vascular endothelial cells; conditions: for binding to endothelial cells (in words): ELISA; for ELISA (OD492 nm), EC: glutaraldehyde-fixed vascular endothelial cells, DHFR-specific monoclonal antibody
Procedure: as §1, §2

sFlt-1 = biological target: T2, sFlt-1 (Homo sapiens, UniProt P17948); assay: ELISA test of binding specificity to soluble receptor sFlt-1; conditions: for binding to Flt-1 (in words): ELISA; for ELISA (OD492 nm), SFlt-1: plate coated with sFlt-1 5 mg/L, detection with DHFR-specific monoclonal antibody
T2 construct: made in house
T2 sequence (P17948 27-758 limits assumed, species assumed): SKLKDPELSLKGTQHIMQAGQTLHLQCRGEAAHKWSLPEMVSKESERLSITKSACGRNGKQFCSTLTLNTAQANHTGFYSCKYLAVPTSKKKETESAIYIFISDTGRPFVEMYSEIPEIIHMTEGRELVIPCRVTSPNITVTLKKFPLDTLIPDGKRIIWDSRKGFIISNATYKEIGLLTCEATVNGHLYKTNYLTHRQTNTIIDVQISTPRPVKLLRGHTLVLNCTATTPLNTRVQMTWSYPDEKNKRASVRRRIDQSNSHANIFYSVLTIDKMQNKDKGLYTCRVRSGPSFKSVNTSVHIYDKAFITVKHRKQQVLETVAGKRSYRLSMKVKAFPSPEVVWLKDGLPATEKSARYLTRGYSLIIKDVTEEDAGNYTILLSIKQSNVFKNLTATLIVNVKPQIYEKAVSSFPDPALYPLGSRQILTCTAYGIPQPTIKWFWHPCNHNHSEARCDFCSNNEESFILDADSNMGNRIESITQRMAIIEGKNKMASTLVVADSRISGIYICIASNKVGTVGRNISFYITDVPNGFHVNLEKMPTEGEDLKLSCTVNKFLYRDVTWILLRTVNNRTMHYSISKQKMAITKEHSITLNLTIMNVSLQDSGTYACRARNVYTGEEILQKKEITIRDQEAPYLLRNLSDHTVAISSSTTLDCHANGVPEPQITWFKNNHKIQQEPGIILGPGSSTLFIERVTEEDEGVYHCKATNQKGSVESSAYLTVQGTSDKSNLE
Procedure: as §1, §2

[6] = biological target: T3, soluble receptor of VEGF, Flt-1 (sFlt-1) (Homo sapiens, UniProt P17948); assay: 125I-VEGF competitive binding assay on coated sFlt-1; conditions: 1, 5, 10, 15, 20 μg/ml; 125I-VEGF 2 μg/L; FIG. 1
T3 construct: coated overnight at 4° C. by 0.5 mg/L soluble receptor of VEGF, Flt-1 (sFlt-1)
T3 sequence (P17948 27-758 limits assumed, species assumed): as above
Procedure: In order to detect the activity of DHFR-F56 blocking VEGF binding to sFlt-1, a binding assay was carried out using ^125I-VEGF (purchased from Life Technology Inc.).
The experiment was carried out according to a method substantially as described by Tanaka, K., et al (Characterization of the extracellular domain in vascular endothelial growth factor receptor-1 (Flt-1 tyrosine kinase). Jpn J Cancer Res. 1997, 88:867-876). Briefly, a 96-well plate was coated overnight at 4° C. by 0.5 mg/L soluble receptor of VEGF, Flt-1 (sFlt-1). The coating solution was 0.01 mol/L phosphate buffer (pH 6.2). Then, the plate was rinsed with a washing solution (0.9% NaCl, 0.01 mol/L, pH6.2) for 3 times. 250 μl blocking buffer (0.3% BSA, 25 mmol/L HEPES, DMEM, pH7.6) was added into each well for 3 hours at room temperature. DHFR-F56 of different concentrations (1, 5, 10, 15, 20 μg/ml) (DHFR of different concentrations for the control group) and ^125I-VEGF (purchased from Life Technology Inc.) of fixed concentration (2 μg/L, […]) were added to the wells. 2 parallel wells were used for each concentration. The binding reaction underwent for 1 hour at room temperature. The plate was rinsed 4 times with the binding buffer. […] The cpm value was determined by a Wallac co liquid-scintillation counter after the solid residue had been dissolved.

[7] = 0.5 mmol/L 60 μl topically, 10 times
[8] = lung, 0.5 mmol/L 60 μl topically, 10 times, after 8 weeks
[9] = on filter membrane, twice daily for 2 days, FIG. 3

| Molecule | effect on chick chorioallantoic membrane blood vessels [2, 9] | inhibition to the proliferation of umbilical cord vein-derived endothelial cells [3] | reaction with KDR (in words) (sKDR) | ELISA (OD492 nm), SKDR (sKDR) | growth of human gastric carcinoma MGC803 cells in Balb/c nude mice [4] | binding to endothelial cells (in words) [5] | ELISA (OD492 nm), EC [5] | binding to Flt-1 (in words) (sFlt-1) | ELISA (OD492 nm), SFlt-1 (sFlt-1) | binding of 125I-VEGF to coated sFlt-1 [6] | also measured |
| --- | --- | --- | --- | --- | --- | --- | --- | --- | --- | --- | --- |
| H2N-Trp-His-Ser-Asp-Met-Glu-Trp-Trp-Tyr-Leu-Leu-Gly-COOH (H-WHSDMEWWYLLG-OH) [Peptide F56] | rupture of blood vessels and bleeding in addition to blood vessel atrophy; also recorded: derangeable in distribution and atrophic | no significant inhibition | – | – | – | – | – | – | – | – | cancer metastasis to lung (in words) [1, 7]: significantly inhibit cancer metastasis to lung; tumor growth on the injection sites (in words) [1, 7]: inhibition of tumor growth on the injection sites; Number of metastatic foci in each mouse, mouse 1 [1, 8]: 0; Number of metastatic foci in each mouse, mouse 2 [1, 8]: 0; Number of metastatic foci in each mouse, mouse 3 [1, 8]: 1; Number of metastatic foci in each mouse, mouse 4 [1, 8]: 2; Number of metastatic foci in each mouse, mouse 5 [1, 8]: 2; Mean number of metastatic foci ([1]; lung, 5 mice, after 8 weeks): 1.0; Total number of metastatic foci ([1]; lung, 5 mice, after 8 weeks): 5; Metastasis inhibition (%) ([1]; lung, versus solvent, after 8 weeks): 70.5% |
| VEGF [reference compound] | – | – | – | – | – | – | – | – | – | – | effect on chick chorioallantoic membrane blood vessels ([2]; in vivo): can promote the proliferation; also recorded: stimulated the blood vessels to proliferate significantly |
| H2N-Trp-His-Asp-Pro-Thr-Pro-Trp-Trp-Ser-Trp-Glu-Ile-COOH (H-WHDPTPWWSWEI-OH) [Peptide F90] | derangeable in distribution and atrophic | no significant inhibition | – | – | – | – | – | – | – | – | – |
| DHFR-F56: fusion protein composed of peptide F56 and dihydrofolate reductase, expressed in E. coli M15 (protein) MVRPLNCIVAVSQNMGIGKNGDLPWPPLRNEFKYFQRMTTTSSVEGKQNLVIMGRKTWFSIPEKNRPLKDRINIVLSRELKEPPRGAHFLAKSLDDALRLIEQPELASKVDMVWIVGGSSVYQEAMNQPGHLRLFVTRIMQEFESDTFFPEIDLGKYKLLPEYPGVLSEVQEEKGIKYKFEVYEKKWHSDMEWWYLLG | – | – | no notable reaction | 0.081 | can inhibit the growth | can bind | 0.477 | can bind | 0.529 | decreases along with the increase of the concentration of DHFR-F56 | necrosis of tumor ([4]; FIG. 4): result in necrosis of tumor |
| DHFR-F90: fusion protein composed of peptide F90 and dihydrofolate reductase, expressed in E. coli M15 (protein) MVRPLNCIVAVSQNMGIGKNGDLPWPPLRNEFKYFQRMTTTSSVEGKQNLVIMGRKTWFSIPEKNRPLKDRINIVLSRELKEPPRGAHFLAKSLDDALRLIEQPELASKVDMVWIVGGSSVYQEAMNQPGHLRLFVTRIMQEFESDTFFPEIDLGKYKLLPEYPGVLSEVQEEKGIKYKFEVYEKKWHDPTPWWSWEI | – | – | no notable reaction | 0.074 | can inhibit the growth | can bind | 0.384 | can bind | 0.415 | – | – |
| dihydrofolate reductase (protein, dihydrofolate reductase, negative control protein) MVRPLNCIVAVSQNMGIGKNGDLPWPPLRNEFKYFQRMTTTSSVEGKQNLVIMGRKTWFSIPEKNRPLKDRINIVLSRELKEPPRGAHFLAKSLDDALRLIEQPELASKVDMVWIVGGSSVYQEAMNQPGHLRLFVTRIMQEFESDTFFPEIDLGKYKLLPEYPGVLSEVQEEKGIKYKFEVYEKK | no notable effect | – | no reaction | 0.074 | – | no reaction | 0.080 | no reaction | 0.088 | no notable effect | – |
